Measured values: patent US20140161725A1 (H LEE MOFFITT CANCER CENTER AND RESEARCH INSTITUTE, published 2014)
Where no end group is shown, it is not given here. The star is where a group is joined. Dhc(Pam)2 = S-[2,3-bis(palmitoyl)oxy-(R)-propyl]-cysteine, CCCCCCCCCCCCCCCC(=O)OC[C@H](CSC[C@H](N)C(=O)*)OC(=O)CCCCCCCCCCCCCCC; PEGO = not defined here

Experiments:
[1] = target: human carbonic anhydrase 9 (CAIX) (human) (UniProt Q16790); assay: in vivo fluorescence imaging of CAIX positive MDA-mb-231 tumour 24 h after injection; competitor unlabeled CAIX mAb
[2] = target: T1, human Toll-like receptor 2 (TLR2) (human, UniProt O60603 21-784); assay: Eu TRF competition binding on SU.86.86 cells; competitor 90 nM compound 11
T1 sequence (O60603 21-784): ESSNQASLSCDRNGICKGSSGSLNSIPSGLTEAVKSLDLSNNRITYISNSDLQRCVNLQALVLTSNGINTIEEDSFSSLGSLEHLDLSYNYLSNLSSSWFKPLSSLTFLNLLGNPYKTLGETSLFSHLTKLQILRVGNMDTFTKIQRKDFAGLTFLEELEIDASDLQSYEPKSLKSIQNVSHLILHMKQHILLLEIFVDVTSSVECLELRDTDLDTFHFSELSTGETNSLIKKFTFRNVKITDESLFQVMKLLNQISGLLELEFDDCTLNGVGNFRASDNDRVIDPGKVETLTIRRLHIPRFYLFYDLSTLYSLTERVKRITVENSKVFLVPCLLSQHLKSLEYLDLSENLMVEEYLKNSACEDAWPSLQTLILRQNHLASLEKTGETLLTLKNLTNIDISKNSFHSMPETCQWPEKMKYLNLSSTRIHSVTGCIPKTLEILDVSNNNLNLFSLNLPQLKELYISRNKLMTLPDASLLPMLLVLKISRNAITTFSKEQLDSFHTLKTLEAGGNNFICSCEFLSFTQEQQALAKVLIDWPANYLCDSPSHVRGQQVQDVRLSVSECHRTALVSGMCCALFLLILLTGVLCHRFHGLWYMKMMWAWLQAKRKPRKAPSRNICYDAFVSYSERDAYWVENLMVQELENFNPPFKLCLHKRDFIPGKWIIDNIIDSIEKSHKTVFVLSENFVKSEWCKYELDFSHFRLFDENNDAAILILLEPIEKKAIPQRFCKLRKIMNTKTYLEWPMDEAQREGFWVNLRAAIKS

[3] = target: T1, human Toll-like receptor 2 (TLR2); assay: cell-based or functional assay
[4] = target: T1, human Toll-like receptor 2 (TLR2); assay: in cyto competition binding assay
[5] = target: T1, human Toll-like receptor 2 (TLR2); assay: Eu TRF competition binding on HEK-293/hTLR2 cells; competitor 90 nM compound 11
[6] = target: T1, human Toll-like receptor 2 (TLR2); assay: Eu TRF competition binding; competitor compound 11
[7] = target: T1, human Toll-like receptor 2 (TLR2); assay: Eu TRF saturation binding on Capan-I cells
[8] = target: T1, human Toll-like receptor 2 (TLR2); assay: Eu TRF saturation binding on SU.86.86 cells
[9] = target: T1, human Toll-like receptor 2 (TLR2); assay: Eu TRF saturation binding on HEK-293/hTLR2 cells; non-specific binding with 1 µM Pam2CSK4
[10] = target: T1, human Toll-like receptor 2 (TLR2); assay: time-resolved fluorescence saturation binding assay
[11] = target: T1, human Toll-like receptor 2 (TLR2); assay: Eu TRF saturation binding on SU.86.86 cells; non-specific binding with 1 µM Pam2CSK4
[12] = target: T1, human Toll-like receptor 2 (TLR2); assay: Eu TRF saturation binding on TLR2 expressing cells
[13] = target: T1, human Toll-like receptor 2 (TLR2); assay: Eu TRF saturation binding on HEK-293/hTLR2 cells
[14] = target: T1, human Toll-like receptor 2 (TLR2); assay: Eu TRF saturation binding on Capan-I cells; non-specific binding with 1 µM Pam2CSK4
[15] = target: T1, human Toll-like receptor 2 (TLR2); assay: time-resolved fluorescence competitive binding assay
[16] = target: T1, human Toll-like receptor 2 (TLR2); assay: in vivo fluorescence imaging of TLR2 expressing SU.86.86 xenografts 24 h post-injection; competitor 20-fold excess Pam2CSK4

CA9Ab-680 (anti-human CAIX monoclonal antibody, Clone 303123, R&D systems, conjugated to VivoTag-S 680)
fold decrease of probe fluorescence in the tumour after blocking with unlabeled CAIX mAb [1]: 1.7 times

Compound 10: Ac-PEGO-Cys(S-[2,3-bis(palmitoyl)oxy-(R)-propyl])-Gly-DSer-PEGO-NH2 (peptide)
Ki [2]: 91 nM
fold of enhancement of luminescence at 1 µg/mL vs SAA at 10 µg/mL [3]: 5.2 fold
fold of enhancement of luminescence vs SAA at 1 µg/mL [3]: 14 fold
Ki [4]: 24 nM
Ki [5]: 25 nM
Ki [6]: < 100 nM

Compound 11: Eu-DTPA-PEGO-Cys(S-[2,3-bis(palmitoyl)oxy-(R)-propyl])-Gly-DSer-PEGO-NH2 (peptide)
Bmax [7]: 951000 AFU
Bmax [8]: 270000 AFU
Kd [9]: 34 nM
Kd [10]: 30 nM
Kd [11]: 74 nM
Kd [12]: < 100 nM
Bmax [13]: 114000 AFU
Kd [14]: 78 nM

Compound 12: Mpr-PEGO-Cys(S-[2,3-bis(palmitoyl)oxy-(R)-propyl])-Gly-DSer-PEGO-NH2 (peptide)
Ki [2]: 25 nM
Ki [6]: < 100 nM

Compound 13: IRDye800CW-Mpr-PEGO-Cys(S-[2,3-bis(palmitoyl)oxy-(R)-propyl])-Gly-DSer-PEGO-NH2 (peptide)
Ki [15]: 10 nM
Ki [2]: 67 nM
unblocked/blocked tumor fluorescence (fold) [16]: 1.94 fold
Ki [5]: 11 nM
Ki [6]: < 100 nM

{Ac-PEGO-Dhc(Pam)2}-GSQNLASLEE-NH2 (reading uncertain)
fold of enhancement of luminescence at 1 µg/mL vs SAA at 10 µg/mL [3]: 4.8 fold
fold of enhancement of luminescence vs SAA at 1 µg/mL [3]: 13 fold

SRFDEDDLE-NH2 (not fully specified (some residues, N-terminus))
fold of enhancement of luminescence at 1 µg/mL vs SAA at 10 µg/mL [3]: 4.2 fold
fold of enhancement of luminescence vs SAA at 1 µg/mL [3]: 11 fold
